Assay results from patent publication US20240409645A1 (DUALYX, published 2024).
Read-outs that look alike come from different tables or passages of the source. Blank lines part the entries; values can stand above or below the binder they belong to.

Columns and labels:
[1] = molecular target: T1, human IL-2Rβ (human, UniProt P14784 27-240, limits assumed); assay: P.E. ELISA, coated protein
T1 construct: recombinant protein, coated or immobilised; also called hu IL-2R; IL-2R beta
T1 sequence: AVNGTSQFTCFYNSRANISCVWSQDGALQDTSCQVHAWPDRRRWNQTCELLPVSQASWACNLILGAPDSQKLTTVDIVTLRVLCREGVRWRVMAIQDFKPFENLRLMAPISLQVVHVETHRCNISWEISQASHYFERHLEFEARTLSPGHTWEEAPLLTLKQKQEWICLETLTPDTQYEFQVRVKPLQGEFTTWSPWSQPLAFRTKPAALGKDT
Procedure: In a binding ELISA, human or mouse IL-2Rα, IL-2Rβ and IL-2Rγ proteins were coated directly on maxisorp microtiter plates overnight at 4° C. Free binding sites were blocked using 4% Marvel in PBS for 1 hour. Next, 1:5 dilution of P.E. in 1% Marvel/PBS were added to wells and incubated for 1 hour. […] Binding specificity was determined based on O.D. at 450 nm values compared to negative controls.

[2] = molecular target: T1, human IL-2Rβ; assay: SPR, P.E. off-rate
Procedure: SPR was performed to determine dissociation rates using Biacore 3000 instrument (GE Healthcare). Briefly, human and mouse IL-2R proteins were immobilized on carboxylmethyl dextran sensor chip (CM5) at approximately 2500 RUs using amine coupling in acetate buffer (GE Healthcare). The VHH-containing P.E. were loaded with a flow rate of 30 uL/min and the off-rates were measured over a 120s period.

[3] = molecular target: T2, human IL-2 receptor (IL-2Rα/IL-2Rβ/γc) (human, UniProt P01589 22-272; P14784 27-551; P31785 23-369); assay: cell-based or functional assay
T2 sequence 1: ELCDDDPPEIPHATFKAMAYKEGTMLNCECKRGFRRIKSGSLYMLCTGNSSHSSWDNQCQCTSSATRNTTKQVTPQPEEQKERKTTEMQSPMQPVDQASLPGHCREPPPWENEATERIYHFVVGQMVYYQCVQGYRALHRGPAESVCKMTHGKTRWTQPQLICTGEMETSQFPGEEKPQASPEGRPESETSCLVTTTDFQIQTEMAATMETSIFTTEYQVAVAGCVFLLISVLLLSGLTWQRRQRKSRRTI
T2 sequence 2: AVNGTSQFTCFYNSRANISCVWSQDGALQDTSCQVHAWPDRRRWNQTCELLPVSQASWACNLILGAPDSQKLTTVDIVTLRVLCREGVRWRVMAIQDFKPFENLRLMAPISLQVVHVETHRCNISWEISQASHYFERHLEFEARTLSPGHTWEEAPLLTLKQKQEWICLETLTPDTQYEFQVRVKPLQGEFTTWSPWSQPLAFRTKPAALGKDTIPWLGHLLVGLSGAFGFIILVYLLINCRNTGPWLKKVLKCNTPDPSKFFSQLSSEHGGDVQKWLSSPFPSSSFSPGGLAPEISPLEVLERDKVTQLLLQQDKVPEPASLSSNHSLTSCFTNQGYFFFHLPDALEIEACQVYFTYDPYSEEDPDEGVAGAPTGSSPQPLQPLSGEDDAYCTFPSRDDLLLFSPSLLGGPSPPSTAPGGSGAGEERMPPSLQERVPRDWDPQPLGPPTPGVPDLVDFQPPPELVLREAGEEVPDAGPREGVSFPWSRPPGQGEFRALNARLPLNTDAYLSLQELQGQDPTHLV
T2 sequence 3: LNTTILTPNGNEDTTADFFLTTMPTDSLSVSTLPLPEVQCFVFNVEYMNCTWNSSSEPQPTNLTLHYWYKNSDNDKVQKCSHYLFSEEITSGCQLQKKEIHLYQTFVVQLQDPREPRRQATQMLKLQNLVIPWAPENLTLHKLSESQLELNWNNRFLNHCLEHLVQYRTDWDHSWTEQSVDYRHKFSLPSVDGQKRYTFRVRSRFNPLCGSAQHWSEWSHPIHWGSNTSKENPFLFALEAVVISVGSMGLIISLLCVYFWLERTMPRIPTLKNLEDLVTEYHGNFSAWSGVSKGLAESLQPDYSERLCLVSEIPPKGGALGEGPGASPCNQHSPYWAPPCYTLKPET

[4] = molecular target: T2, human IL-2 receptor (IL-2Rα/IL-2Rβ/γc); assay: cell-based or functional assay; remark: listed apart in the source

B1: FJ1427_P035MP02E03 (VHH)
VHH: EVQLVESGGGSVQTGGSLRLSCVVSGSHFISDVMGWYRQVPGKQRELVADMADGGSVKYGDSVKGRFTILRDSVKNTVTLQMSSLNPEDTGVYYCKAGLWITGRHFDYWGQGTQVTVTS
notes: soluble VHH in periplasmic extract; also called clone nr
- P.E. binding ELISA OD [1]: 0.242 OD450 nm
- koff [2]: 0.000169 s⁻¹

B3: FJ1427_P035MP02F03 (VHH)
VHH: EVQLVESGGGLVQAGGSLRLSCAASGGTFSSYAMGWFRQAPGKEREFVAATTRGGGRTMYAVSTEGRFTCSRDNAKNTVYLLMNSLKPEDTAVYYCAAMTSYYSGTYYPDSSDFDIWGQGTQVTVSS
notes: as for B1
- P.E. binding ELISA OD [1]: 0.212 OD450 nm
- koff [2]: 0.000828 s⁻¹

B4: FJ1427 P035MP02H04 (VHH)
VHH: QVQLVESGGGLVQAGDSLRLSCATSGLTFSSYALGWFRQAPGKKREFVAATTRGGGRTMYAVSTEGRFTCSRDNDKNTVYLLMNSLKPKDTAVYYCAAMTSYYSGTYYPDSSDFDIWGQGTQVTVSS
notes: as for B1
- P.E. binding ELISA OD [1]: 0.376 OD450 nm
- koff [2]: 0.00051 s⁻¹

B6: FJ1427_P035MP02D03 (VHH)
VHH: QVQLVESGGGLVQAGGPLRLSCAASGGTFSSYAMGWFRQAPGKEREFVAATTRGGGRTMYAVSTEGRFTCSRDNAKNTVYLLMNSLKPEDTAVYYCAAMTSYYSGTYYPDSSDFDIWGQGTQVTVSS
notes: as for B1
- P.E. binding ELISA OD [1]: 0.286 OD450 nm
- koff [2]: 0.000226 s⁻¹

B8: FJ1427_P035MP02B04 (VHH)
VHH: EVQLVESGGGLVQAGGSLGLSCAASGGTFSSYAMGWFRQAPGKEREFVAATTRGGGRTMYAVSTEGRFTCSRDNAKNTVYLQMNSLKPKDTAIYYCAAMTSYYSGTYYPDSSDFDIWGQGTQVTVSS
notes: as for B1
- P.E. binding ELISA OD [1]: 0.375 OD450 nm
- koff [2]: 0.000449 s⁻¹

B9: FJ1427 P035MP02C01 (VHH)
VHH: QVQLVESGGGLVQPGGSLGLSCAASGFTFDNYAMSWVRQAPGKGLEWVSSITGAGRGTHYADSVKGRFTISRDNAKNTLYLQMNSLKPEDTAVYYCAKYSSSTYYPPTPARGTDYRGPGTQVTVSS
notes: soluble VHH in periplasmic extract; also called clone nr; 99
- P.E. binding ELISA OD [1]: 0.7 OD450 nm
- koff [2]: 0.000789 s⁻¹

Second part, the binder after the results:

- EC50 (nM) pSTAT5, NK, human PBMCs [3]: 1.14 nM
- EC50 (nM) pSTAT5, Treg, human PBMCs [3]: 0.00195 nM
- Fold Max signal (% pSTAT5+) Treg/NK [3]: 8 fold
- Max signal (% pSTAT5+), NK [3]: 8.26 % pSTAT5+
- Max signal (% pSTAT5+), Treg [3]: 64.1 % pSTAT5+
- fold EC50 NK/Treg [3]: 583 fold
- EC50 (nM) pSTAT5, NK, human PBMCs [4]: 2.59 nM
- EC50 (nM) pSTAT5, Treg, human PBMCs [4]: 0.0118 nM
- Fold Max signal (% pSTAT5+) Treg/NK [4]: 5 fold
- Max signal (% pSTAT5+), NK [4]: 20 % pSTAT5+
- Max signal (% pSTAT5+), Treg [4]: 95 % pSTAT5+
- fold EC50 NK/Treg [4]: 220 fold
B2: TsVHH-48 (other)
chain 1: QVQLVESGGGLVQPGGSLRLSCATSGFTFRNNFMSWVRQAPGKGLEWVSTISYGGESTTYAESVKGRFTISRDNAKNTLYLQMNNLKPEDTAVYYCAKATSYDSIRSGSRGQGTQVTVSSDKTHTCPPCPAPEAAGGPSVFLFPPKPKDTLMISRTPEVTCVVVDVSHEDPEVKFNWYVDGVEVHNAKTKPREEQYNSTYRVVSVLTVLHQDWLNGKEYKCKVSNKALGAPIEKTISKAKGQPREPQVYTLPPSRDELTKNQVSLTCLVKGFYPSDIAVEWESNGQPENNYKTTPPVLDSDGSFFLYSRLTVDKSRWQQGNVFSCSVMHEALHNHYTQKSLSLSPGK
chain 2: QVQLVESGGGLVQAGGSLTLSCAAPGRTFGTDVVGWFRQAPGKEREFVASISRSGDGIYYDDSVKGRFTISRNNAWNTVNLQMNSLKVEDTAVYYCAAGDGWSTYDYWGQGTQVTVSSGGGGSGGGGSGGGGSGSEVQLVESGGGLVQTGGSLRLSCAASGGTFSRDAMAWFRQVPGKEREFVALISWSGATTNYADSVKGRFAISRDNGKNTVYLQMNRLKPADTAIYYCAADRRPMGSRSYFEPTEYDDWGQGTQVTVSSGGGGSGGGGSGGGGSTVSSDKTHTCPPCPAPEAAGGPSVFLFPPKPKDTLMISRTPEVTCVVVDVSHEDPEVKFNWYVDGVEVHNAKTKPREEQYNSTYRVVSVLTVLHQDWLNGKEYKCKVSNKALGAPIEKTISKAKGQPREPQVYTLPPSRDELTKNQVSLTCLVKGFYPSDIAVEWESNGQPENNYKTTPPVLDSDGSFLLYSKLTVDKSRWQQGNVFSCSVMHEALHNHYTQKSLSLSPGK

- P.E. binding ELISA OD [1]: 2.55 OD450 nm
- koff [2]: 0.000484 s⁻¹
B5: FJ1427_P035MP02A06 (VHH)
VHH: QVQLQESGGGLVQAGGSLRLSCAASGGTFSSYAMGWFRQAPGKEREFVAATTRGGGRTMYAVSTEGRFTCSRDNDKNTVYLLMNSLKPKDTAVYYCAAMTSYYSGTYYPDSSDFDIWGQGTQVTVSS
notes: as for B1

- P.E. binding ELISA OD [1]: 0.255 OD450 nm
- koff [2]: 0.000716 s⁻¹
B7: FJ1427_P035MP02E04 (VHH)
VHH: EVQLVESGGGLVQAGGSLRLSCAASGGTFSSYAMGWFRQAPGKEREFVAATTRGGGRTMYAVSTEGRFTCSRDNAKNTVYLQMNSLKPKDTAIYYCAAMTSYYSGTYYPDSSDFDIWGQGTQVTVSS
notes: as for B1

- P.E. binding ELISA OD [1]: 0.351 OD450 nm
- koff [2]: 0.00217 s⁻¹
B10: FJ1427 P035MP02C06 (VHH)
VHH: QLQLVESGGGLVQPGGSLELSCAASGFTFSNYAMSWVRQAPGKGLEWVSSITGFGRGTDYADSVKGRFTISRDNAKNTLYLQMNSLKPEDTAVYYCARYSSSTYYPPTPARGRDYRGQGTQVTVSS
notes: as for B1

- EC50 (nM) pSTAT5, NK, human PBMCs [3]: 0.00127 nM
- EC50 (nM) pSTAT5, Treg, human PBMCs [3]: 0.425 pM
- Fold Max signal (% pSTAT5+) Treg/NK [3]: 9 fold
- Max signal (% pSTAT5+), NK [3]: 3.39 % pSTAT5+
- Max signal (% pSTAT5+), Treg [3]: 30 % pSTAT5+
- fold EC50 NK/Treg [3]: 3 fold
- EC50 (nM) pSTAT5, NK, human PBMCs [4]: 0.0936 nM
- EC50 (nM) pSTAT5, Treg, human PBMCs [4]: 0.00189 nM
- Fold Max signal (% pSTAT5+) Treg/NK [4]: 6 fold
- Max signal (% pSTAT5+), NK [4]: 14 % pSTAT5+
- Max signal (% pSTAT5+), Treg [4]: 83 % pSTAT5+
- fold EC50 NK/Treg [4]: 49 fold
B11: DC00068 (other)
chain 1: EVQLVESGGGLVQTGGSLRLSCAASGGTFSRDAMAWFRQVPGKEREFVALISWSGATTNYADSVKGRFAISRDNGKNTVYLQMNRLKPADTAIYYCAADRRPMGSRSYFEPTEYDDWGQGTQVTVSSGGGGSGGGGSGGGGSQVQLVESGGGLVQPGGSLRLSCATSGFTFRNNFMSWVRQAPGKGLEWVSTISYGGESTTYAESVKGRFTISRDNAKNTLYLQMNNLKPEDTAVYYCAKATSYDSIRSGSRGQGTQVTVSSDKTHTCPPCPAPEAAGGPSVFLFPPKPKDTLMISRTPEVTCVVVDVSHEDPEVKFNWYVDGVEVHNAKTKPREEQYNSTYRVVSVLTVLHQDWLNGKEYKCKVSNKALGAPIEKTISKAKGQPREPQVYTLPPSRDELTKNQVSLTCLVKGFYPSDIAVEWESNGQPENNYKTTPPVLDSDGSFLLYSKLTVDKSRWQQGNVFSCSVMHEALHNHYTQKSLSLSPGK
chain 2: QVQLVESGGGLVQAGGSLTLSCAAPGRTFGTDVVGWFRQAPGKEREFVASISRSGDGIYYDDSVKGRFTISRNNAWNTVNLQMNSLKVEDTAVYYCAAGDGWSTYDYWGQGTQVTVSSGGGGSGGGGSGGGGSQVQLVESGGGLVQPGGSLRLSCATSGFTFRNNFMSWVRQAPGKGLEWVSTISYGGESTTYAESVKGRFTISRDNAKNTLYLQMNNLKPEDTAVYYCAKATSYDSIRSGSRGQGTQVTVSSGGGGSGGGGSGGGGSEVQLVESGGGLVQTGGSLRLSCAASGGTFSRDAMAWFRQVPGKEREFVALISWSGATTNYADSVKGRFAISRDNGKNTVYLQMNRLKPADTAIYYCAADRRPMGSRSYFEPTEYDDWGQGTQVTVSSGGGGSGGGGSGGGGSDKTHTCPPCPAPEAAGGPSVFLFPPKPKDTLMISRTPEVTCVVVDVSHEDPEVKFNWYVDGVEVHNAKTKPREEQYNSTYRVVSVLTVLHQDWLNGKEYKCKVSNKALGAPIEKTISKAKGQPREPQVYTLPPSRDELTKNQVSLTCLVKGFYPSDIAVEWESNGQPENNYKTTPPVLDSDGSFFLYSRLTVDKSRWQQGNVFSCSVMHEALHNHYTQKSLSLSPGK
